In data set [1] the target is TEBP-1-His5 (Caenorhabditis elegans) (UniProt O62329). The data set is described as follows: fluorescence polarization. The following applies: FP: 20 mM HEPES pH 7.0, 100 mM NaCl, 5% glycerol, 20 nM probe, 10 min at RT; pull-down: 50 mM Tris/HCl pH 7.5, 150 mM NaCl, 0.5% NP-40, 5 mM MgCl2, 1 mM DTT ….
Data set [2] has as its target TEBP-2-His5 (Caenorhabditis elegans) (UniProt Q22429). The data set is described as follows: fluorescence polarization. The following applies: FP: 20 mM HEPES pH 7.0, 100 mM NaCl, 5% glycerol, 20 nM probe, 10 min at RT; pull-down: 50 mM Tris/HCl pH 7.5, 150 mM NaCl, 0.5% NP-40, 5 mM MgCl2, 1 mM DTT ….

One sequence from article PMC8113555 can be followed below.

Sequence of TEBP-2-His5 (Caenorhabditis elegans) (Q22429 entry or part of it): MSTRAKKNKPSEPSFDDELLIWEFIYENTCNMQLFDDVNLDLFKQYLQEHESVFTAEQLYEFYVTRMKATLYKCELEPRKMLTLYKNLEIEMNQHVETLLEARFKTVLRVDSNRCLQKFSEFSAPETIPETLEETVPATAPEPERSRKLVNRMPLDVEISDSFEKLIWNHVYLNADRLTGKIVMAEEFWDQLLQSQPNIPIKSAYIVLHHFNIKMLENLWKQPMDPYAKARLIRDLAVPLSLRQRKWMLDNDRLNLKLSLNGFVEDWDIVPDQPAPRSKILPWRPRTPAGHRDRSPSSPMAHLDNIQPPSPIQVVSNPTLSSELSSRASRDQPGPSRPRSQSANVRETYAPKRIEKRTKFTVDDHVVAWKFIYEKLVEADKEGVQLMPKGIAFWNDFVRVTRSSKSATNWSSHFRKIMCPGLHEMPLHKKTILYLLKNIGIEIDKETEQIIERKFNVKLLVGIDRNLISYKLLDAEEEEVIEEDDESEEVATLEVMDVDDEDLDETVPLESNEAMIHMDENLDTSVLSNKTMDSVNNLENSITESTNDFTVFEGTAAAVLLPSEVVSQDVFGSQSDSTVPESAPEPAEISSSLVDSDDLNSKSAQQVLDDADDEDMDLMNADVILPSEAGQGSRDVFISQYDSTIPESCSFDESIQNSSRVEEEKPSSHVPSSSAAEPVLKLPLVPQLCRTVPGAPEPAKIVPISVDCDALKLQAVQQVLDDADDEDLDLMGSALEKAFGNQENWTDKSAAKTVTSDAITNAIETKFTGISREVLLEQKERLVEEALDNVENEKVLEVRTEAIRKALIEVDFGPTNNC

As for “CTGTTAGGCTTAGGCTTAG (double strand) [2.5x TTAGGC ds]”, the equilibrium dissociation constant (Kd) in data set [1] worked out at 129 nM; in data set [2], 37.8 nM.
